# Assay results taken from patent US20140065154A1, “TLR3 BINDING AGENTS” (INNATE PHARMA, priority 2011, published 2014).
# Positions count from the first letter of the chain named. Like-named read-outs stand apart in the source and are kept apart here.
# B1: antibody 23C8 (antibody, V domains shown)
# VH: EVQLQQSGPELVKPGASVKISCKASGYSFTGYFMHWVKQSHVKSLEWIGRINPYNGATSYNQNFKDKASLTVDKSSSTSYMELHSLTSEDSAVYYCVRDDGGNYPFDYWGQGTTLTVS
# VL: DIQMTQSPASLSASVGETVTITCRASENIYSYLAWYQQKQGKSPQLLVYYAKTLAEGVPSRFSGSGTGTQFSLKINSLQPEDFGSYYCQHHYGTPYTFGGGTKLEIK
# notes: also called 23C8.4
# B2: antibody 28F11 (antibody, V domains shown)
# VH: EVQLQQSGPELVKPGASVKISCKASGYSFTGYYIHWVKQSHVKSLEWIGRINPYYGATSYNQNFKDKANLTVDKSSSTAYMELHSLTSDDSAVYYCARSTKLGYLDYWGQGTTLTVS
# VL: B1 VL with Y32N, V48I, Y50N, T67S, F71Y, S72F, Y96F
# B3: antibody 34A3 (antibody, V domains shown)
# VH: EIQLQQSGPELVKPGASVKVSCKASGYVFTTYSIYWVKQSHGKSLEWIGYIDPYNGDTSYNQKFKGKATLTVDKSSSTAYMHLNSLTSEDSTVYYCAREGNYYGYFDYWGQGTTLTVS
# VL: QIVLTQSPALMSASPGEKVTMTCSASSSVSYMFWYQQKPRSSPKPWIYLTSNLASGVPARFSGSGSGTSYSLTISSMEAEDAATYYCQQWTGNPPTFGGGTKLEIK
# notes: Mouse hybridoma antibody (Balb/c, immunization series #2); also called 34A3.5; printed 34A4, 32A4 and 34A2 in some places
# B4: 23C8: anti-human TLR3 monoclonal antibody, IgG1; VH SEQ ID NO: 26, VL SEQ ID NO: 27 (antibody, listed as Mus musculus, V domains shown)
# VH: MGWSWIFLFLLSGTAGVLSEVQLQQSGPELVKPGASVKISCKASGYSFTGYFMHWVKQSHVKSLEWIGRINPYNGATSYNQNFKDKASLTVDKSSSTSYMELHSLTSEDSAVYYCVRDDGGNYPFDYWGQGTTLTVS
# VL: MSVPTQVLGLLLLWLTGARCDIQMTQSPASLSASVGETVTITCRASENIYSYLAWYQQKQGKSPQLLVYYAKTLAEGVPSRFSGSGTGTQFSLKINSLQPEDFGSYYCQHHYGTPYTFGGGTKLEIK
# modifications: SIGNAL (1)..(19); SIGNAL (1)..(20)
# B5: 28F11: anti-human TLR3 monoclonal antibody, IgG1; VH SEQ ID NO: 18, VL SEQ ID NO: 19 (antibody, listed as Mus musculus, V domains shown)
# VH: MGWSWIFLFLLSGTAGVLSEVQLQQSGPELVKPGASVKISCKASGYSFTGYYIHWVKQSHVKSLEWIGRINPYYGATSYNQNFKDKANLTVDKSSSTAYMELHSLTSDDSAVYYCARSTKLGYLDYWGQGTTLTVS
# VL: B4 VL with Y52N, V68I, Y70N, T87S, F91Y, S92F, Y116F
# modifications: SIGNAL (1)..(19); SIGNAL (1)..(20)
# Columns and labels:
# [1] = cited from earlier work
# COPD mouse model = experiment: In vivo efficacy model of COPD (Elastin and LPS); parameters: species or system mice; settings: drug combination study
# Protocol: Three groups of 10 male mice were treated as follows: • 1 group of 10 mice with a vehicle. • 1 group of 10 mice with the anti-mouse TLR328G7 antibody administration (i.p., 500 μg/per mouse) on days 0, 3, 7, 10, 14, 17, 21 and 24. • 1 group of 10 mice with the positive control roflumilast (approved as […]; antagonist of PDE-4) (oral, 15 mg/kg, five times per week). All mice were treated at days 0, 7, 14 and 21 with Elastin and LPS (i.n.), to induce COPD. At day 28 mice were sacrificed for analysis. The cellular infiltrates into airways was measured by analysis of bronchoalveolar lavage (BAL) fluid by differential cell count on day 28. The oxygenation of venous blood was measured by gasometry on day 28. The level inflammatory mediators in BALF, through the analysis for protein levels of TNF-alpha, IL-6, IL-17A and IP-10 was performed by multiplex assay. […] Statistical analysis was performed on all data utilizing a Student's t test: '*' p<0.05; '**' p<0.005; '***'p<0.0005. […] All mice were treated with Elastin and LPS (i.n.), to induce COPD and sacrified as in study A. The cellular infiltrates into airways was measured by analysis of bronchoalveolar lavage (BAL) fluid by differential cell count as in Study A.
# [2] = target: T1, wild type human TLR3 expressed in 293T cells (human, UniProt O15455 24-904); experiment: cell-based or functional assay
# [3] = target: T1, wild type human TLR3 expressed in 293T …; experiment: cell-based or functional assay; remark: listed apart in the source
# [4] = target: T2, recombinant human TLR3 extracellular domain (R&D Systems) (human, UniProt O15455 27-711); experiment: SPR (Biacore T100), rhTLR3 immobilised on CM5 chip, bivalent affinity, pH 5.6
# T2 construct: also called rhTLR3; human rec TLR3; not shown: His tag (R&D #1487-TR)
# [5] = target: T2, recombinant human TLR3 extracellular …; experiment: SPR (Biacore T100), rhTLR3 immobilised on CM5 chip, bivalent affinity, pH 7.2
# TLR3 [6] = target: T3, TLR3 (Homo sapiens, UniProt O15455); experiment: SPR competition assay with polyAU in acidic buffer; type: binding; parameters: purchased R&D Systems; settings: pH 5.6
# Protocol: (a) General Biacore T100 methods. SPR measurements were performed on a Biacore T100 apparatus (Biacore GE Healthcare) at 25° C. In all Biacore experiments HBS-EP+ buffer (Biacore GE Healthcare) or 10 mM sodium acetate pH 5.6, 150 mM NaCl, 0.05% P20 served as running buffer and sensorgrams were analyzed with Biaevaluation 4.1 and Biacore T100 Evaluation software. Recombinant human and mouse TLR3 were purchased from R&D Systems. (b) Protein immobilization. Recombinant TLR3 protein was immobilized covalently to carboxyl groups in the dextran layer of a Biacore Series 5 Sensor Chip CM5 (chip). The chip surface was activated with EDC/NHS (0.2M N-ethyl-N′-(3-dimethylaminopropyl) carbodiimidehydrochloride, 0.05M N-hydroxysuccinimide (Biacore GE Healthcare)). […] Deactivation of the remaining activated groups was performed using 100 mM ethanolamine pH 8 (Biacore GE Healthcare). (c) Antibody binding analysis was run using HBS-EP+ (neutral pH). Antibodies at a concentration of 10 μg/ml were injected for 2 min at a constant flow rate of 10 μl/min over the immobilized proteins and allowed to dissociate for 3 min before regeneration by a ten second injection of 10 mM NaOH, 500 mM NaCl regeneration buffer. Blank correction was performed on line by co-injecting the soluble antibodies onto the reference dextran flow cell. (d) Competition assay in acidic buffer (pH 5.6). Flow rate was set to 10 μl/min, the first antibody at a concentration of 50 μg/ml (or polyAU at 100 μg/ml) was injected for 2 min, 3 times successively in order to saturate the rhTLR3 surface. The second antibody (or polyAU at 100 μg/ml when the polyAU was added after first antibody) was then injected for 2 min also at 50 μg/ml and allowed to dissociate for 3 min before regeneration by a 15 second injection of 10 mM NaOH, 500 mM NaCl regeneration buffer. Blank correction was also performed on line and the curve using the saturating antibody (or neucleic acid) followed by an injection of buffer subtracted to remove the signal due to the dissociation of the first complex. The resulting signal was compared to that obtained by the injection of the second antibody directly onto the rhTLR3 surface.
# Competition assays were conducted according to the methods described for SPR, item d) at pH 5.6.
# Buffer (followed by polyAU) is represented in the lower line, while 31C3 followed by polyAU is in the upper line.
# TLR3 [7] = target: T3, TLR3; experiment: 293T-TLR3-ISRE luciferase reporter gene assay; type: cell-based; parameters: host or cells: 293T (ATCC #CRL-1573), stably carrying pISRE-luc; settings: dsRNA TLR3 agonist
# Source text: A reporter gene assay using as promoter ISRE (IFN-stimulated response element) and as reporter gene and protein luciferase was set up. A 293T cell line (ATCC, #CRL-1573) was stably transfected with pISRE-luc plasmid (#219089—Stratagene), further selected by cloning as inducing optimal response to IFN-alpha stimulation and referred to as control 293T-ISRE. This cell line was further stably transfected with pUNO-humanTLR3 plasmid (#puno-htlr3—InVivogen) or pUNO-mouseTLR3 plasmid (#puno-mtlr3—InVivogen) and referred to as 293T-TLR3-ISRE and 293T-mTLR3-ISRE respectively. On day 0, cells are seeded at 4×10^5 cells/mL in complete culture medium in 96-well culture plate (100 μl/well). Cells are first incubated at 37° C. for 20 hours, then 50 μL of medium are discarded and cells are activated with 100 μL/well final of increasing amounts of polyAU together with various concentrations of anti-TLR3 antibodies. Cells incubated with fresh medium will be used as background luciferase activity. Cells are incubated at 37° C. for 6 hours. 100 μL of freshly thawed Steady Glo (Promega) are added to each well, plates were incubated 10 min at RT in the dark and the light emitted in each well is quantified as Count Per Second (CPS) on a gamma-counter (TopCount) apparatus.
# Antibodies were tested for inhibition of TLR3 signaling in a luciferase based reporter gene activity (293T-TLR3-ISRE). […] Briefly, dsRNA TLR3 agonists were used to induce TLR3 signaling in the reporter assay in the presence of anti-TLR3 antibodies, and TLR3 signaling was assessed.
# In a further set of experiments, 293-huTLR3 cells were incubated with different concentrations of the anti-TLR3 mAbs for 1 to 2 hours (see FIG. 1A; mAb concentration is represented in axis in μg/ml on a logarithmic scale) followed by the addition to the medium of the TLR3 agonist polyAU at a concentration of 300 μg/ml. Luciferase expression was measured after 6 h. […]
# Similarly the kinetics of inhibition of the antibodies was evaluated in 293T-TLR3 luciferase assay. […] Luciferase expression was measured at 6 h post poly(A:U) addition. […]
molecule,measurement,setting,value
Etanercept,half-life,[1]; after a 25 mg dose,70 h
"O=C(Nc1c(Cl)cncc1Cl)c1ccc(OC(F)F)c(OCC2CC2)c1 [Roflumilast, roflumilast]",BAL macrophages and lymphocytes,COPD mouse model,decreases in macrophages
same,BAL neutrophil infiltration,COPD mouse model,decreased infiltration of neutrophils into the airways
Adalimumab,half-life,[1]; after a standard 40 mg dose,approximately 2 weeks
same,half-life (range),[1]; after a standard 40 mg dose,240 to 480 h
B1,"IC50, luciferase reporter inhibition test with 100 µg/ml of polyAU",[2],< 5 µg/mL
same,"IC50 (µg/ml), inhibition of polyAU (300 µg/ml)-induced luciferase expression in 293-huTLR3 ISRE reporter cells",[3],1.83 µg/mL
same,Kd,[4],10.3 pM
same,Kd,[5],138 pM
B2,"IC50 (µg/ml), inhibition of polyAU (300 µg/ml)-induced luciferase expression in 293-huTLR3 ISRE reporter cells",[3],5.56 µg/mL
same,Kd,[4],335 pM
same,Kd,[5],650 pM
B3,"IC50, luciferase reporter inhibition test with 100 µg/ml of polyAU",[2],< 5 µg/mL
same,Kd,[4],51.7 pM
same,Kd,[5],3.01 pM
B4,antibody binding to TLR3 chip previously incubated with polyAU,TLR3 [6],able to bind TLR3 even in the presence of polyAU
same,inhibition of TLR3 signaling,TLR3 [7],strongly inhibited TLR3 signaling in a dose dependent fashion
B5,antibody binding to TLR3 chip previously incubated with polyAU,TLR3 [6],able to bind TLR3 even in the presence of polyAU
same,inhibition of TLR3 signaling,TLR3 [7],strongly inhibited TLR3 signaling in a dose dependent fashion
